Data as given in patent US20260034230A1 (Regeneron, published 2026).

B1: 12802B anti-hTfR monoclonal antibody (bivalent IgG1) (antibody, V domains shown)
VH: QVQLVESGGGLVKPGGSLRLSCAASGFTFSDYFMSWIRQAPGKGLEWVSYISSTGSTINYADSVKGRFTISRDNVKNSLYLQMTSLRVEDTAVYYCTRDNWNYEYWGQGTLVTVSS
VL: EIVMTQSPATLSVSPGERATLSCRASQSVSINLAWYQQKPGQAPRLLIFVASTRATGIPARFSGSGSGTEFTLTISSLQSEDFATYYCQQYDIWPYTFGQGTKLEIKR
notes: hIgG1/kappa
B2: 12808B anti-hTfR monoclonal antibody (bivalent IgG1) (antibody, V domains shown)
VH: QLQLQESGPGLVKPSETLSLTCTVSGESISSNTYYWGWIRQPPGKGLEWIGSIDYSGTTNYNPSLKSRVTISVDTSRNHFSLRLRSVTAADTAVYYCAREWGNYGYYYGMDVWGQGTTVTVSS
VL: DIQMTQSPSSLSASVGDRVTINCRASQGIRNDLGWYQQKPGKAPKRLIYAASSLQSGVPLRFSGSGSGTEFTLTINNLQPEDFATYYCLSHNSYPWTFGQGTKVEIKR
notes: hIgG1/kappa
B3: 12835B anti-hTfR monoclonal antibody (bivalent IgG1) (antibody, V domains shown)
VH: EVQLVESGGGLIQPGGSLRLSCEASGFTFRNYEMNWVRQAPGKGLEWVSYISSSGNMKDYAESVKGRFTISRDNVKNSLQLQMNSLRVEDTAVYYCARDEFPYGMDVWGQGTTVTVSS
VL: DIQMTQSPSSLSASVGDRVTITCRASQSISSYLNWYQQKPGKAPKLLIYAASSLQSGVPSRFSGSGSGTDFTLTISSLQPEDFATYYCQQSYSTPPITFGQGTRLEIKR
notes: hIgG1/kappa; also called H1H12835B; REGN17509
B4: 12843B anti-hTfR monoclonal antibody (bivalent IgG1) (antibody, V domains shown)
VH: EVQLVESGGGLVQPGGSLRLSCAASGFTFNIFEMNWVRQAPGKGLEWISYISSRGTTTYYADSVRGRFTISRDNAKNSLYLQMNSLRAEDTAVYYCARDYEATIPFDFWGQGTLVTVSS
VL: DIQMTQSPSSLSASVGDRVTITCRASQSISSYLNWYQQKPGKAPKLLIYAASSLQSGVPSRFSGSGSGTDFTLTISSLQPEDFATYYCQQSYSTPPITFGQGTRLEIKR
notes: hIgG1/kappa; also called H1H12843B; REGN17512
B5: 12844B anti-hTfR monoclonal antibody (bivalent IgG1) (antibody, V domains shown)
VH: EVQLVESGGSVVRPGGSLRLSCEASGFTFDDYGMSWVRQDPGKGLEWVSGINWNGDRTNYADSVKGRFIISRDNAKNSVYLQMNSLRAEDSALYHCARDQGLGVAATLDYWGQGTLVTVSS
VL: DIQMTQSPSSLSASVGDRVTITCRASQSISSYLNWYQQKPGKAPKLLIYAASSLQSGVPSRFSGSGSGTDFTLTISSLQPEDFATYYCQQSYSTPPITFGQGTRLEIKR
notes: hIgG1/kappa
B6: 12847B anti-hTfR monoclonal antibody (bivalent IgG1) (antibody, V domains shown)
VH: EVQLVESGGGLVQPGRSLRLSCAASGFTFDDYAMNWVRQAPGKGLEWVSGISWSSGSMDYADSVKGRFTISRDNAKNSLYLQMNSLRTEDTALYYCAKAREVGDYYGMDVWGQGTTVTVSS
VL: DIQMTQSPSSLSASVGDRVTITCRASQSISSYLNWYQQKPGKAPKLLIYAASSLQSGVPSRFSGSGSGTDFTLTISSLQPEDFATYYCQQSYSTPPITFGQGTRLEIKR
notes: hIgG1/kappa; also called H1H12847B; REGN17514
B7: 12848B anti-hTfR monoclonal antibody (bivalent IgG1) (antibody, V domains shown)
VH: EVQLVESGGGLVQPGRSLTLSCAASGFTFDNFGMHWVRQGPGKGLEWVSGLTWNSGVIGYADSVKGRFTISRDNAKNSLYLQMNSLRPEDTALYYCAKDIRNYGPFDYWGQGTLVTVSS
VL: not shown
notes: hIgG1/kappa; also called H1H12848B; REGN17515

Legend:
[1] = molecular target: T1, REGN2054 (mf TFRC ecto-mmh): monomeric monkey (cyno) Tfrc ectodomain (C89-F760) with C-terminal … (monkey (cyno, Macaca fascicularis), UniProt H9EXL1 89-760); assay: SPR Biacore, IgG captured by anti-hFc, 25 C
T1 construct: range 89-760; also called mfTFR-mmh; mfTfR-mmh
T1 sequence (chain, as listed by the source): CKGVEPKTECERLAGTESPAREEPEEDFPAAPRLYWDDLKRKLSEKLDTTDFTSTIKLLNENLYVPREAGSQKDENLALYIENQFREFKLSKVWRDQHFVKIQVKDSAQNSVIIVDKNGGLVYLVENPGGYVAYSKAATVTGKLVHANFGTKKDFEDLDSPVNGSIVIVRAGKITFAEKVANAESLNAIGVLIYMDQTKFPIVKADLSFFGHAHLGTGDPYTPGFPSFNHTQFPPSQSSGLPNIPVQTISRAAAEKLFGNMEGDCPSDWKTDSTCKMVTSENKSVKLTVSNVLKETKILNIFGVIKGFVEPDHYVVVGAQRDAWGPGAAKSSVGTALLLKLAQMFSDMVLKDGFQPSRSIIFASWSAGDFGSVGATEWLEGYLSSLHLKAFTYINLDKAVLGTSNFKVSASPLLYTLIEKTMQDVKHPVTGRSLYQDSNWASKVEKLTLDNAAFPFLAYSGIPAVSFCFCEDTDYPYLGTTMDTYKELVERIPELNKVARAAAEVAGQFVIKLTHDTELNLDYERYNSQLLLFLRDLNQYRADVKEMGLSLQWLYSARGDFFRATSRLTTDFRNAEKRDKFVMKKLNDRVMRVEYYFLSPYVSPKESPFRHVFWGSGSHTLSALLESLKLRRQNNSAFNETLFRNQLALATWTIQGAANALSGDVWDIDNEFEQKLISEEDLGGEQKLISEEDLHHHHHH
Protocol: (§1) Biacore binding kinetics assays were conducted for the interaction of 32 anti-human TfR IgG1 monoclonal antibodies from CHO supernatants with TfR reagents at 25° C.
(§2) Equilibrium dissociation constants (KD) for the interaction of anti-TfR monoclonal antibodies with human and fascicularis monkey TfR ecto domain recombinant proteins were determined using a real-time surface plasmon resonance (SPR) based Biacore S200 biosensor. All binding studies were performed in 10 mM HEPES, 150 mM NaCl, 3 mM EDTA, and 0.05% v/v surfactant Tween-20, pH 7.4 (HBS-EP) running buffer at […]. The Biacore CM5 sensor surface was first derivatized by amine coupling with a monoclonal mouse anti-human Fc antibody (REGN2567) followed by a step to capture anti-TfR monoclonal antibodies in CHO conditioned media. […] The dissociation of TfR bound to anti-TfR monoclonal antibodies was monitored for 3 minutes in HBS-EP running buffer. At the end of each cycle, the anti-TfR monoclonal antibodies capture surface was regenerated using a 12-see injection of 20 mM H₃PO₄. The association rate (ka) and dissociation rate (kd) were determined by fitting the real-time binding sensorgrams to a 1:1 binding model with mass transport limitation using Scrubber 2.0c software. The dissociation equilibrium constant (KD) and dissociative half-life (t %) were calculated from the kinetic rate constants as: […]

[2] = molecular target: T2, REGN2431 (hmm.hTfRC): monomeric human Tfrc ectodomain (C89-F760) with N-terminal hexahistidine-myc-myc tag (human, UniProt P02786 89-760); assay: SPR Biacore, IgG captured by anti-hFc, 25 C
T2 construct: also called hmm.hTfR(C89-F763); hTFR-mmh
T2 sequence (P02786 other isoform, or with tags, fused parts or gaps): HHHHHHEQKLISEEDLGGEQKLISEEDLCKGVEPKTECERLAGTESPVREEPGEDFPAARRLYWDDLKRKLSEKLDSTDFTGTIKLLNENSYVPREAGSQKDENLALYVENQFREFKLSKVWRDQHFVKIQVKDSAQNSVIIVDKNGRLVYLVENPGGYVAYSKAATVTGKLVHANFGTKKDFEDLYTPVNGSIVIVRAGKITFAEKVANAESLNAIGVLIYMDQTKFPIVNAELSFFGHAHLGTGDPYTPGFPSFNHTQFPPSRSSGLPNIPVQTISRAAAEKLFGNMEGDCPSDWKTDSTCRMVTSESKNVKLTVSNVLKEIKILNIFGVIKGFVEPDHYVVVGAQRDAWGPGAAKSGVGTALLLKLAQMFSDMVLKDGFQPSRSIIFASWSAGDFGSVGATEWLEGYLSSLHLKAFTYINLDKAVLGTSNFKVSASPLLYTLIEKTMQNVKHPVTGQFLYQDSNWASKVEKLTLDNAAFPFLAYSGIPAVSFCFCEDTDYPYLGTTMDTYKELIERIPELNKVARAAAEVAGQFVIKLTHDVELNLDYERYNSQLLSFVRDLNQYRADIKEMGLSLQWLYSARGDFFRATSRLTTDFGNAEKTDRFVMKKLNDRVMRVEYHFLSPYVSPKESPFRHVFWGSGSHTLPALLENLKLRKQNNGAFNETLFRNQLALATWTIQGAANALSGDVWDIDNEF
Protocol: as §1, §2

| Binder | t1/2 [1] [min] | t1/2 [2] [min] |
| --- | --- | --- |
| B1 | 21.8 | 395 |
| B2 | 25.5 | 108 |
| B3 | 6.9 | 27.7 |
| B4 | 9.8 | 68.8 |
| B5 | 15.7 | 95 |
| B6 | 34.7 | 67.6 |
| B7 | 12 | 232 |
